The record followed here is the supplement of paper PMC9112550, “Optimization of the antimicrobial peptide Bac7 by deep mutational scanning” (BMC Biology, 2022).
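Further: peptides expressed intracellularly from a pBAD plasmid library in pooled LB shake-flask culture, induced with 0.3% L-arabinose, DNA abundance read by NGS, three biological replicates, DESeq2 with apeglm shrinkage.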

In the series the test system is Escherichia coli TOP10. The series is described as follows: shrunken log2 fold change of peptide-encoding DNA abundance (4.5 h post-induction vs induction); higher = less antimicrobial activity (less host growth inhibition). The conditions noted are these: time post-induction: 4.5 h; library: site-saturation at positions 5, 18, 19, 20.
In the case of RRIRHRPPRLPRPRPRPCPCPRP, the “shrunken log2 fold change” value is -0.114.

For RRIRRRPPRLPRPRPRPWVRPRP, the “shrunken log2 fold change” value was -0.0986.

RRIRPRPPRLPRPRPRPMSHPRP: the “shrunken log2 fold change” value was 0.0914.

With RRIRGRPPRLPRPRPRPWPFPRP, the “shrunken log2 fold change” value came out at 0.745.

For the sequence RRIRERPPRLPRPRPRPCIRPRP, the “shrunken log2 fold change” value was -0.152.

With RRIRRRPPRLPRPRPRPMLFPRP, the “shrunken log2 fold change” value came to 0.263.

Take RRIRHRPPRLPRPRPRPITNPRP: the “shrunken log2 fold change” value is -1.23.

In the case of RRIRGRPPRLPRPRPRPQPFPRP, the “shrunken log2 fold change” value is -0.0232.

As to RRIRCRPPRLPRPRPRPRRDPRP, the “shrunken log2 fold change” value amounted to 0.0823.

As for RRIRQRPPRLPRPRPRPLYNPRP, the “shrunken log2 fold change” value is -0.796.

In the case of RRIRARPPRLPRPRPRPTYIPRP, the “shrunken log2 fold change” value was -0.438.

Turning to RRIRLRPPRLPRPRPRPIHEPRP, the “shrunken log2 fold change” value turned out to be 0.139.

Take RRIRLRPPRLPRPRPRPIMAPRP: the “shrunken log2 fold change” value was found to be 0.0391.

As for RRIRARPPRLPRPRPRPDSCPRP, the “shrunken log2 fold change” value amounted to 0.156.

As for RRIRVRPPRLPRPRPRPCHDPRP, the “shrunken log2 fold change” value is -0.122.

As to RRIRYRPPRLPRPRPRPRHHPRP, the “shrunken log2 fold change” value is -0.846.

Turning to RRIRKRPPRLPRPRPRPPFYPRP, the “shrunken log2 fold change” value was 0.229.

For the sequence RRIRERPPRLPRPRPRPGADPRP, the “shrunken log2 fold change” value was 0.146.

On to RRIRVRPPRLPRPRPRPRTDPRP, for which the “shrunken log2 fold change” value was -0.191.

As to RRIRHRPPRLPRPRPRPSERPRP, the “shrunken log2 fold change” value was -0.0252.

For RRIRFRPPRLPRPRPRPEFCPRP, the “shrunken log2 fold change” value came out at 0.139.

As for RRIRDRPPRLPRPRPRPRDGPRP, the “shrunken log2 fold change” value stood at 0.81.

On to RRIRQRPPRLPRPRPRPGAPPRP, for which the “shrunken log2 fold change” value worked out at 0.307.

As to RRIRKRPPRLPRPRPRPPVKPRP, the “shrunken log2 fold change” value turned out to be 0.181.

As for RRIRKRPPRLPRPRPRPFVWPRP, the “shrunken log2 fold change” value was -0.0438.

As for RRIRSRPPRLPRPRPRPIHTPRP, the “shrunken log2 fold change” value was -0.112.

As to RRIRMRPPRLPRPRPRPLILPRP, the “shrunken log2 fold change” value was -0.429.

For the sequence RRIRGRPPRLPRPRPRPREMPRP, the “shrunken log2 fold change” value is 1.2.

On to RRIRLRPPRLPRPRPRPEISPRP, for which the “shrunken log2 fold change” value was 0.099.

Consider RRIRERPPRLPRPRPRPMHCPRP, for which the “shrunken log2 fold change” value was -0.0195.

RRIRERPPRLPRPRPRPDIPPRP: the “shrunken log2 fold change” value is -0.366.

As for RRIRCRPPRLPRPRPRPLPAPRP, the “shrunken log2 fold change” value was 0.574.

RRIRDRPPRLPRPRPRPINYPRP: the “shrunken log2 fold change” value came to 0.0585.

RRIRRRPPRLPRPRPRPGRQPRP: the “shrunken log2 fold change” value came to 0.541.

For the sequence RRIRHRPPRLPRPRPRPRPVPRP, the “shrunken log2 fold change” value was found to be 0.22.

For the sequence RRIRLRPPRLPRPRPRPAGMPRP, the “shrunken log2 fold change” value was determined as 0.213.

On to RRIRVRPPRLPRPRPRPVHEPRP, for which the “shrunken log2 fold change” value was -0.104.

For the sequence RRIRQRPPRLPRPRPRPKMEPRP, the “shrunken log2 fold change” value is -0.0177.

Consider RRIRRRPPRLPRPRPRPPHDPRP, for which the “shrunken log2 fold change” value was 1.49.

Consider RRIRNRPPRLPRPRPRPGTSPRP, for which the “shrunken log2 fold change” value was -0.0337.

In the case of RRIRGRPPRLPRPRPRPEIPPRP, the “shrunken log2 fold change” value was determined as 0.196.

In the case of RRIRFRPPRLPRPRPRPEDKPRP, the “shrunken log2 fold change” value is -0.0503.

Take RRIRYRPPRLPRPRPRPWPHPRP: the “shrunken log2 fold change” value worked out at 0.0143.

In the case of RRIRWRPPRLPRPRPRPVLKPRP, the “shrunken log2 fold change” value was found to be 0.637.

Take RRIRIRPPRLPRPRPRPKKYPRP: the “shrunken log2 fold change” value is -0.546.

As for RRIRTRPPRLPRPRPRPDQLPRP, the “shrunken log2 fold change” value was -0.0381.

Regarding RRIRHRPPRLPRPRPRPLTRPRP, the “shrunken log2 fold change” value was 0.0261.

Take RRIRSRPPRLPRPRPRPVNKPRP: the “shrunken log2 fold change” value was -0.404.

Turning to RRIRYRPPRLPRPRPRPILEPRP, the “shrunken log2 fold change” value came out at 0.0174.

Regarding RRIRGRPPRLPRPRPRPCKTPRP, the “shrunken log2 fold change” value was 0.0121.

Turning to RRIRYRPPRLPRPRPRPGTQPRP, the “shrunken log2 fold change” value is -0.141.

On to RRIRDRPPRLPRPRPRPDIWPRP, for which the “shrunken log2 fold change” value worked out at 0.504.

Consider RRIRKRPPRLPRPRPRPQKLPRP, for which the “shrunken log2 fold change” value is 0.015.

As for RRIRQRPPRLPRPRPRPCNWPRP, the “shrunken log2 fold change” value worked out at 0.0183.

As to RRIRERPPRLPRPRPRPSANPRP, the “shrunken log2 fold change” value was -0.35.

Take RRIRTRPPRLPRPRPRPIICPRP: the “shrunken log2 fold change” value is -0.121.

Regarding RRIRERPPRLPRPRPRPGTWPRP, the “shrunken log2 fold change” value is -0.0304.

Consider RRIRTRPPRLPRPRPRPYEIPRP, for which the “shrunken log2 fold change” value is -0.453.

RRIRVRPPRLPRPRPRPFLKPRP: the “shrunken log2 fold change” value was -0.602.

On to RRIRCRPPRLPRPRPRPIPTPRP, for which the “shrunken log2 fold change” value is -0.0788.

In the case of RRIRDRPPRLPRPRPRPLQSPRP, the “shrunken log2 fold change” value was -0.015.

As to RRIRVRPPRLPRPRPRPPCEPRP, the “shrunken log2 fold change” value came out at 0.229.

With RRIRKRPPRLPRPRPRPFMSPRP, the “shrunken log2 fold change” value worked out at 0.0192.

On to RRIRDRPPRLPRPRPRPLHHPRP, for which the “shrunken log2 fold change” value is -0.314.

RRIRYRPPRLPRPRPRPNILPRP: the “shrunken log2 fold change” value was -1.9.

Regarding RRIRLRPPRLPRPRPRPTDWPRP, the “shrunken log2 fold change” value was found to be 0.947.

Take RRIRQRPPRLPRPRPRPTPIPRP: the “shrunken log2 fold change” value worked out at 0.182.

As for RRIRLRPPRLPRPRPRPMLKPRP, the “shrunken log2 fold change” value is -0.295.

With RRIRSRPPRLPRPRPRPNQDPRP, the “shrunken log2 fold change” value is -0.3.

For RRIRDRPPRLPRPRPRPQWAPRP, the “shrunken log2 fold change” value turned out to be 0.326.

Take RRIRTRPPRLPRPRPRPYEPPRP: the “shrunken log2 fold change” value is -0.18.

As for RRIRMRPPRLPRPRPRPDDKPRP, the “shrunken log2 fold change” value was 1.43.

As for RRIRWRPPRLPRPRPRPLCVPRP, the “shrunken log2 fold change” value worked out at 0.0447.

On to RRIRKRPPRLPRPRPRPFDKPRP, for which the “shrunken log2 fold change” value came out at 0.132.

Regarding RRIRRRPPRLPRPRPRPRKQPRP, the “shrunken log2 fold change” value is -0.0686.

Consider RRIRMRPPRLPRPRPRPATEPRP, for which the “shrunken log2 fold change” value came to 0.996.

RRIRLRPPRLPRPRPRPRYDPRP: the “shrunken log2 fold change” value was found to be 0.0436.

RRIRKRPPRLPRPRPRPTCIPRP: the “shrunken log2 fold change” value is -0.176.

RRIRPRPPRLPRPRPRPHCAPRP: the “shrunken log2 fold change” value was determined as 0.228.

For the sequence RRIRLRPPRLPRPRPRPPCFPRP, the “shrunken log2 fold change” value came to 0.242.

On to RRIRVRPPRLPRPRPRPCDLPRP, for which the “shrunken log2 fold change” value was -0.238.

With RRIRARPPRLPRPRPRPYRTPRP, the “shrunken log2 fold change” value is -0.0383.

For RRIRRRPPRLPRPRPRPTRIPRP, the “shrunken log2 fold change” value amounted to 0.71.

On to RRIRMRPPRLPRPRPRPGCWPRP, for which the “shrunken log2 fold change” value is 0.984.

As for RRIRVRPPRLPRPRPRPAHPPRP, the “shrunken log2 fold change” value turned out to be 0.0808.

On to RRIRNRPPRLPRPRPRPEGWPRP, for which the “shrunken log2 fold change” value is 0.68.

On to RRIRARPPRLPRPRPRPDSNPRP, for which the “shrunken log2 fold change” value is 0.179.

As to RRIRNRPPRLPRPRPRPWWFPRP, the “shrunken log2 fold change” value was -0.0934.

With RRIRWRPPRLPRPRPRPRRNPRP, the “shrunken log2 fold change” value was 0.0585.

Turning to RRIRPRPPRLPRPRPRPLAHPRP, the “shrunken log2 fold change” value stood at 0.183.

On to RRIRRRPPRLPRPRPRPVLRPRP, for which the “shrunken log2 fold change” value was 1.11.

In the case of RRIRTRPPRLPRPRPRPYCGPRP, the “shrunken log2 fold change” value is -0.294.

Turning to RRIRYRPPRLPRPRPRPFMYPRP, the “shrunken log2 fold change” value is -1.14.

As to RRIRARPPRLPRPRPRPNDNPRP, the “shrunken log2 fold change” value was -0.344.

Take RRIRTRPPRLPRPRPRPLCVPRP: the “shrunken log2 fold change” value is -0.357.

Take RRIRVRPPRLPRPRPRPFYCPRP: the “shrunken log2 fold change” value was -0.605.

RRIRVRPPRLPRPRPRPIWNPRP: the “shrunken log2 fold change” value was -0.624.

On to RRIRVRPPRLPRPRPRPVKGPRP, for which the “shrunken log2 fold change” value is -0.0226.

As for RRIRQRPPRLPRPRPRPEHNPRP, the “shrunken log2 fold change” value is -0.137.

Consider RRIRKRPPRLPRPRPRPLCLPRP, for which the “shrunken log2 fold change” value was -0.126.

As for RRIRTRPPRLPRPRPRPGWEPRP, the “shrunken log2 fold change” value amounted to 0.0505.

Regarding RRIRGRPPRLPRPRPRPHVPPRP, the “shrunken log2 fold change” value turned out to be 0.103.

RRIRTRPPRLPRPRPRPRCEPRP: the “shrunken log2 fold change” value was determined as 0.117.

In the case of RRIRIRPPRLPRPRPRPPVPPRP, the “shrunken log2 fold change” value turned out to be 0.233.

Regarding RRIRWRPPRLPRPRPRPNIWPRP, the “shrunken log2 fold change” value was -0.153.

Consider RRIRGRPPRLPRPRPRPHKSPRP, for which the “shrunken log2 fold change” value is 0.277.

With RRIRYRPPRLPRPRPRPQFAPRP, the “shrunken log2 fold change” value amounted to 0.0437.

With RRIRKRPPRLPRPRPRPSDVPRP, the “shrunken log2 fold change” value was -0.157.

In the case of RRIRVRPPRLPRPRPRPPARPRP, the “shrunken log2 fold change” value turned out to be 0.76.

Consider RRIRRRPPRLPRPRPRPDNEPRP, for which the “shrunken log2 fold change” value is 0.207.

On to RRIRIRPPRLPRPRPRPWYYPRP, for which the “shrunken log2 fold change” value is -0.00149.

Regarding RRIRMRPPRLPRPRPRPQSHPRP, the “shrunken log2 fold change” value was 0.083.

For the sequence RRIRDRPPRLPRPRPRPPFFPRP, the “shrunken log2 fold change” value is 0.174.

RRIRCRPPRLPRPRPRPEYVPRP: the “shrunken log2 fold change” value was -0.244.

Turning to RRIRWRPPRLPRPRPRPMTPPRP, the “shrunken log2 fold change” value turned out to be 0.764.

As to RRIRIRPPRLPRPRPRPSTDPRP, the “shrunken log2 fold change” value is -0.247.

On to RRIRDRPPRLPRPRPRPDTCPRP, for which the “shrunken log2 fold change” value is 0.00173.

Turning to RRIRERPPRLPRPRPRPDCLPRP, the “shrunken log2 fold change” value is -0.428.

Take RRIRDRPPRLPRPRPRPCWSPRP: the “shrunken log2 fold change” value is -0.00281.

Take RRIRRRPPRLPRPRPRPAIEPRP: the “shrunken log2 fold change” value is 0.109.

Consider RRIRWRPPRLPRPRPRPECLPRP, for which the “shrunken log2 fold change” value came out at 0.444.

In the case of RRIRFRPPRLPRPRPRPHQIPRP, the “shrunken log2 fold change” value was -0.387.

RRIRSRPPRLPRPRPRPIWRPRP: the “shrunken log2 fold change” value amounted to 0.639.

For RRIRFRPPRLPRPRPRPQQEPRP, the “shrunken log2 fold change” value is -0.0424.

As for RRIRGRPPRLPRPRPRPLGQPRP, the “shrunken log2 fold change” value was determined as 0.756.
